Experimental findings from US20110009283A1 are described below.

For experiment [1], the target named is Kv1.3 K+ channel, wild-type, expressed in cells (species not stated) (Homo sapiens (Human)) (UniProt P22001). Briefly: cell-based or functional assay.
Experiment [2] deals with KcsA-Kv1.3 (KcsA carrying a segment of the Kv1.3 pore loop).
The target is the same in experiment [3]. This is another data set of the same source.
Experiment [4] has the same target. This is another data set of the same source.
Experiment [5] deals with Homo Kv1.3 (Homo) (UniProt P22001). Briefly: two-electrode voltage clamp, block of currents in Xenopus oocytes, dose-response fit.
Experiment [6] deals with BK channel (species not stated). The experiment is described as follows: cell-based or functional assay.
Experiment [7] concerns the target Kv1.2 K+ channel (species not stated). Briefly: cell-based or functional assay.
For experiment [8], the target named is Kv1.1 K+ channel (species not stated). Briefly: cell-based or functional assay.
For experiment [9], the target named is Homo Kv1.3 (Homo) (UniProt P22001). The experiment is described as follows: cell-based or functional assay.
The target of experiment [10] is Rattus Kv1.2 (Rattus) (UniProt P63142). Briefly: two-electrode voltage clamp, kinetics of block in Xenopus oocytes.
For experiment [11] the target is unchanged. The experiment is described as follows: two-electrode voltage clamp, block of currents in Xenopus oocytes, dose-response fit.
The target in experiment [12] is KcsA-Kv1.3 (KcsA carrying a segment of the Kv1.3 pore loop). This is another data set of the same source.
In experiment [13] the target is Kv1.3 K+ channel, wild-type, expressed in cells (species not stated) (Homo sapiens (Human)) (UniProt P22001). The experiment is described as follows: panning of a 2:2:96 phage mixture on HEK cells expressing Kv1.3.
Target sequence in this assay (P22001 whole entry, form in doubt): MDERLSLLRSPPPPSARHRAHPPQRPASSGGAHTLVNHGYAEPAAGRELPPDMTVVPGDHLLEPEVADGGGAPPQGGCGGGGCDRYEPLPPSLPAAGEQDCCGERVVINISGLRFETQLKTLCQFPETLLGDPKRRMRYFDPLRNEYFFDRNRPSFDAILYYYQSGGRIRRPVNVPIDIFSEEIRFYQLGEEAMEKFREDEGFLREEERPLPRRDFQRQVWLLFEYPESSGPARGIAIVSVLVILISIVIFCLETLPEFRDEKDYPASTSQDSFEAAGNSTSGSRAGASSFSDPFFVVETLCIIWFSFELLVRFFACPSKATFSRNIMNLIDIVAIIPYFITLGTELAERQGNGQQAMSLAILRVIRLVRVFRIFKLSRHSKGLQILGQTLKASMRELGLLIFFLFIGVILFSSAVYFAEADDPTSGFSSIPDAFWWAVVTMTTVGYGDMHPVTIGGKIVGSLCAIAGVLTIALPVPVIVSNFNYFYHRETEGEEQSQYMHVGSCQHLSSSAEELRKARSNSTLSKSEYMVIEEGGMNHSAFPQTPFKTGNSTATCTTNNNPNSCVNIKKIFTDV
Experiment [14] concerns the target KcsA-Kv1.3 (KcsA carrying a segment of the Kv1.3 pore loop). The experiment is described as follows: phage library panning on immobilized KcsA-1.3.

pKi: −log10 of the molar value.

Rattus Kv1.2 (Rattus), sequence (P63142 whole entry): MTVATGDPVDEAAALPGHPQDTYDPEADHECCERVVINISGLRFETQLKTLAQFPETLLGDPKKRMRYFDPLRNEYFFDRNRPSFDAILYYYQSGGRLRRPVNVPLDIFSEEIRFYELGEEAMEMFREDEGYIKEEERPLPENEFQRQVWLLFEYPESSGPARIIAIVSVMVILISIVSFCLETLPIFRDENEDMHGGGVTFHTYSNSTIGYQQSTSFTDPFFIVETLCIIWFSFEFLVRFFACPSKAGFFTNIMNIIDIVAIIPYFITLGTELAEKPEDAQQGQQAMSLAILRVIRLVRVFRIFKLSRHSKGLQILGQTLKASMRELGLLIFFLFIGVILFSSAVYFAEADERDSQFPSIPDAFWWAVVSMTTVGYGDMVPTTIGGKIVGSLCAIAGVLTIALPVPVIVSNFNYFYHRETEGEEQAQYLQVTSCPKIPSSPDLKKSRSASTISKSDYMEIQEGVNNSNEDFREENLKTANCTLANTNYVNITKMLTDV
Homo Kv1.3 (Homo), sequence (P22001 whole entry): as the sequence (P22001 whole entry, form in doubt) above

“Ce3 (Centruroides elegans toxin Ce3) (peptide)”: the approximate IC50 (nM) of channel block in [1] came to 366 nM.

Turning to “Dendroaspis natriuretic peptide (DNP) phage (from UniProt P28374 1-38)”, the Output (% Ligands) in experiment [2] turned out to be 0%.

In the case of “Kaliotoxin-1 phage (KTX-phage) (peptide)”, the Output (% Ligands) in experiment [2] came out at 100%. The same substance came in with a Fold Enrichment in experiment [3] of 3.6 fold.

In [4], “Shk phage (sea anemone K+ channel toxin ShK on phage) (peptide)” returned a % phages, OUTPUT of 20%.

On to “fasciculin-2 phage (from UniProt P0C1Z0 1-61) (peptide)”, for which the Output (% Ligands) in experiment [2] is 0%.

In the experiment with Homo Kv1.3 (Homo) [5], mokatoxin-1 (MK-1), synthesized peptide had a pKi of 9.00. Further, the approximate IC50 (nM) of channel block in experiment [6] was more than 1000 nM; in experiment [1], 3 nM; in experiment [7], 680 nM; in experiment [8], more than 1000 nM. In addition, the decrease in IL-2 secretion by CD3/CD28-activated human T cells at 10 nM with Homo Kv1.3 (Homo) [9] is 50%. Further, the decrease in TNF-α secretion by CD3/CD28-activated human T cells at 10 nM with Homo Kv1.3 (Homo) [9] stood at 50%. Further, in the experiment with Homo Kv1.3 (Homo) [9], the lowest concentration inhibiting cytokine secretion by T cells worked out at 1 nM.

In the experiment with Rattus Kv1.2 (Rattus) [10], “mokatoxin-1 (MK-1), synthesized peptide (peptide; other documents disagree on this pair)” displayed a koff of 0.16 s⁻¹ and an on-rate constant (kon) of 260000 M⁻¹ s⁻¹. In the experiment with Rattus Kv1.2 (Rattus) [11], the negative-log Ki (pKi) is 6.21.

mokatoxin-1-phage (peptide) registered a % of the phage isolated after two rounds of selection in experiment [12] of 60%. In [13], the % of phages after the 2nd panning is 15%. In experiment [14], this substance had a % of the eluted phage after two rounds of panning of 16.6%.

By pKi is commonly meant −log10 of the Ki, conventionally taken in molar units. The low end stands for a large Ki, the high end for a small Ki. A word on the koff: it is the rate constant with which the complex falls apart. Low readings indicate slow dissociation, high ones fast dissociation. One may read the kon as the second-order rate constant of association.
